Data: publication PMC3526858 (Biochemical Journal, 2012)

Key:
[1] = molecular target: EssB-N, N-terminal cytoplasmic fragment of EssB (residues 12-226) (S. aureus subsp. aureus) (UniProt Q2G185); experiment: native gel or EMSA
[2] = molecular target: EssBΔC, EssB truncated by 43 C-terminal residues, detergent-solubilised (S. aureus subsp. aureus) (UniProt Q2G185); experiment: SEC
native gel or EMSA = molecular target: the molecule itself; experiment: native gel or EMSA

Row | Molecule | stoichiometry N (native gel or EMSA) | further results
1 | EssB-N, N-terminal cytoplasmic fragment of EssB (residues 12-226) (from UniProt Q2G185 12-226) (domain or fragment) |  | stoichiometry N [1]: 2
2 | EssBΔC, EssB truncated by 43 C-terminal residues, detergent-solubilised (from UniProt Q2G185 1-400) (domain or fragment) |  | stoichiometry N [2]: 2
3 | Full-length EssB (S. aureus), detergent-solubilised (natural protein, S. aureus subsp. aureus) GASMVKNHNPKNEMQDMLTPLDAEEAAKTKLRLDMREIPKSSIKPEHFHLMYLLEQHSPYFIDAELTELRDSFQIHYDINDNHTPFDNIKSFTKNEKLRYLLNIKNLEEVNRTRYTFVLAPDELFFTRDGLPIAKTRGLQNVVDPLPVSEAEFLTRYKALVICAFNEKQSFDALVEGNLELHKGTPFETKVIEAATLDLLTAFLDEQYQKQEQDYSQNYAYVRKVGHTVFKWVAIGMTTLSVLLIAFLAFLYFSVMKHNERIEKGYQAFVKDDYTQVLNTYDDLDGKKLDKEALYIYAKSYIQTNKQGLEKDKKENLLNNVTPNSNKDYLLYWMELGQGHLDEAINIATYLDDNDITKLALINKLNEIKNNGDLSNDKRSEETKKYNDKLQDILDKEKQVKDEKAKSEEEKAKAKDEKLKQQEENEKKQKEQAQKDKEKRQEAERKK | 2 | 
4 | EssB-C, C-terminal fragment of EssB (residues 257-444) (domain or fragment, S. aureus subsp. aureus) GASERIEKGYQAFVKDDYTQVLNTYDDLDGKKLDKEALYIYAKSYIQTNKQGLEKDKKENLLNNVTPNSNKDYLLYWMELGQGHLDEAINIATYLDDNDITKLALINKLNEIKNNGDLSNDKRSEETKKYNDKLQDILDKEKQVKDEKAKSEEEKAKAKDEKLKQQEENEKKQKEQAQKDKEKRQEAERKK | 2 | 
